{
  "source": "patent US20260153518",
  "proteins": {"B1": {"name": "human MMP12 (matrix metalloproteinase 12), activated with APMA (protein)", "chain": "GPVWRKHYITYRINNYTPDMNREDVDYAIRKAFQVWSNVTPLKFSKINTGMADILVVFARGAHGDFHAFDGKGGILAHAFGPGSGIGGDAHFDEDEFWTTHSGGTNLFLTAVHEIGHSLGLGHSSDPKAVMFPTYKYVDINTFRLSADDIRGIQSLYGDPKENQRLPNPDNSEPALCDPNLSFDAVTTVGNKIFFFKDRFFWLKVSERPKTSVNLISSLWPTLPSGIEAAYEIEARNQVFLFKDDKYWLISNLRPEPNYPKSIHSFGFPNFVKKIDAAVFNPRFYRTYFFVDNQYWRYDERRQMMDPGYPKLITKNFQGIGPKIDAVFYSKNKYYYFFQGSNQFEYDFLLQRITKTLKSNSWFGC"}},
  "key": {"[1]": {"biological_target": "PJ-8 (positive control peptide)"}, "[2]": {"biological_target": "PP-2b (positive control peptide)"}, "[3]": {"biological_target": "candidate peptide No. 11 (hIFN-gamma positions 126-139), 5-carboxyfluorescein labelled"}, "[4]": {"biological_target": "candidate peptide No. 15 (mIFN-gamma positions 128-141), 5-carboxyfluorescein labelled"}, "[5]": {"biological_target": "candidate peptide No. 16 (mIFN-gamma positions 143-154), 5-carboxyfluorescein labelled"}, "[6]": {"biological_target": "candidate peptide No. 17 (mCXCL-1 positions 1-14, Cys replaced with Ser), 5-carboxyfluorescein labelled"}, "[7]": {"biological_target": "candidate peptide No. 19 (hCXCL-7 positions 76-89), 5-carboxyfluorescein labelled"}, "[8]": {"biological_target": "candidate peptide No. 2 (hCCL-14 positions 61-74), 5-carboxyfluorescein labelled"}, "[9]": {"biological_target": "candidate peptide No. 20 (hCXCL-3 positions 1-14, Cys replaced with Ser), 5-carboxyfluorescein labelled"}, "[10]": {"biological_target": "candidate peptide No. 22 (hCXCL-5 positions 3-15, Cys replaced with Ser), 5-carboxyfluorescein labelled"}, "[11]": {"biological_target": "candidate peptide No. 4 (hIFN-alpha-10 positions 150-161), 5-carboxyfluorescein labelled"}, "[12]": {"biological_target": "candidate peptide No. 5 (hIFN-alpha-6 positions 154-165), 5-carboxyfluorescein labelled"}, "[13]": {"biological_target": "candidate peptide No. 6 (hIFN-alpha-6 positions 150-161), 5-carboxyfluorescein labelled"}, "[14]": {"biological_target": "candidate peptide No. 7 (hIFN-alpha-2 positions 154-165), 5-carboxyfluorescein labelled"}},
  "data": [
    {"protein": "B1", "values": [
      {"measurement": "cleavage by MMP12 (UPLC)", "setting": "[1]", "result": "it was confirmed that the two positive controls were cleaved by MMP12 (data is not shown)"},
      {"measurement": "cleavage by MMP12 (UPLC)", "setting": "[2]", "result": "it was confirmed that the two positive controls were cleaved by MMP12 (data is not shown)"},
      {"measurement": "Cleavage rate (%)", "setting": "[3]", "result": 100, "unit": "%"},
      {"measurement": "Cleavage rate (%)", "setting": "[4]", "result": 10.5, "unit": "%"},
      {"measurement": "Cleavage rate (%)", "setting": "[5]", "result": 61.7, "unit": "%"},
      {"measurement": "Cleavage rate (%)", "setting": "[6]", "result": 98.6, "unit": "%"},
      {"measurement": "Cleavage rate (%)", "setting": "[7]", "result": 26, "unit": "%"},
      {"measurement": "Cleavage rate (%)", "setting": "[8]", "result": 56, "unit": "%"},
      {"measurement": "Cleavage rate (%)", "setting": "[9]", "result": 100, "unit": "%"},
      {"measurement": "Cleavage rate (%)", "setting": "[10]", "result": 100, "unit": "%"},
      {"measurement": "Cleavage rate (%)", "setting": "[11]", "result": 53.5, "unit": "%"},
      {"measurement": "Cleavage rate (%)", "setting": "[12]", "result": 38.5, "unit": "%"},
      {"measurement": "Cleavage rate (%)", "setting": "[13]", "result": 90.3, "unit": "%"},
      {"measurement": "Cleavage rate (%)", "setting": "[14]", "result": 70.4, "unit": "%"}
    ]}
  ]
}
